Drawing on doi:10.1101/2021.05.25.445618, this text covers fold enrichment, stoichiometry N and percent ClpP1 in the tetradecamer peak for five substances.

Assay [1] concerns the target C-terminally myc-tagged ClpP2 (ClpP2-2×myc) (L. monocytogenes EGD-e). Nature of the assay: affinity purification with mass spectrometry.
Assay [2] concerns the target L. monocytogenes ClpP1 of the co-expressed ClpP1/2 preparation (L. monocytogenes). Nature of the assay: SEC. On the technique in general: Size exclusion chromatography separates by hydrodynamic size, large species first.
Assay [3] has as its target L. monocytogenes ClpP2, separately overexpressed and purified (ClpP2_(14)) (L. monocytogenes). Nature of the assay: SEC + other: intact protein mass spectrometry.
The target of assay [4] is L. monocytogenes ClpP1, separately overexpressed and purified (ClpP1_(7)) (L. monocytogenes). Nature of the assay: SEC + other: intact protein mass spectrometry.
Assay [5] has the same target. Briefly: SEC.
In assay [6] the target is L. monocytogenes ClpP2 of the co-expressed ClpP1/2 preparation (L. monocytogenes). Briefly: SEC.

Substance “ClpP1, endogenous in L. monocytogenes (enzyme)” gave a fold enrichment at 42 °C over 20 °C in assay [1] of 6 fold.
One may read the stoichiometry N as a count of units in the complex or per binding partner. In assay [2], “L. monocytogenes ClpP1 of the co-expressed ClpP1/2 preparation (enzyme)” gave a stoichiometry N of 7.
For “L. monocytogenes ClpP1, separately overexpressed and purified (ClpP1_(7)) (enzyme)”, the percent ClpP1 in the tetradecamer peak in assay [3] lay in the range of 40 to 44%. Also, the stoichiometry N in assay [4] and in assay [5] was 7 in each case.
As for “L. monocytogenes ClpP2 of the co-expressed ClpP1/2 preparation (enzyme)”, the stoichiometry N in assay [6] stood at 14.
As to “L. monocytogenes ClpP2, separately overexpressed and purified (ClpP2_(14)) (enzyme)”, the stoichiometry N in assay [3] was determined as 14.
